Measurements reported in patent US20120058906A1 (published 2012).

Key:
[1] = target: T1, rHuman HGF R/c-MET/Fc Chimera, CF (R&D Systems Cat#358-MT/CF) (human, UniProt P08581 25-932); experiment: ECL (MSD multi-spot), antigen spotted on plate; Fab 1000 nM; blank 760
T1 construct: Bought protein; also called HGF R/Fc; hepatocyte growth factor receptor; Fc part of the bought chimera not given

[2] = target: T2, rHuman IGF-1 sR (IGF-1 sR), CF (R&D Systems Cat#391-GR) (human, UniProt P08069 31-932); experiment: as above
T2 construct: Bought soluble receptor; also called insulin-like growth factor-1 soluble receptor; IGF-R1

[3] = target: T3, Recombinant Human DLL4 (R&D Systems Cat#1506-D4/CF) (human, UniProt Q9NR61 27-524); experiment: as above
T3 construct: Bought protein; also called rHuman DLL4; delta-like protein 4

[4] = target: T4, rHuman Notch-1/Fc Chimera, CF (R&D Systems Cat#3647-TK) (human, UniProt P46531 19-526); experiment: as above
T4 construct: Bought protein; Fc part of the bought chimera not given

[5] = target: T5, rHuman EGF R/Fc Chimera, CF (R&D Systems Cat#344-ER) (human, UniProt P00533 25-645); experiment: as above
T5 construct: Bought protein; also called epidermal growth factor receptor; Fc part of the bought chimera not given

[6] = target: T6, rHuman CD44/Fc Chimera, CF (R&D Systems Cat#3660-CD) (human, UniProt P16070 21-220); experiment: as above
T6 construct: Bought protein; Fc part of the bought chimera not given

[7] = target: T7, rHuman P-Cadherin/Fc Chimera, CF (R&D Systems Cat#861-PC) (human, UniProt P22223 108-654); experiment: as above
T7 construct: Bought protein; also called CDH3; Fc part of the bought chimera not given

[8] = target: T8, rHuman Erythropoietin R/Fc Chimera, CF (R&D Systems Cat#963-ER) (human, UniProt P19235 25-250); experiment: as above
T8 construct: Bought protein; also called EPO R/Fc; Epo R; Fc part of the bought chimera not given
T8 sequence: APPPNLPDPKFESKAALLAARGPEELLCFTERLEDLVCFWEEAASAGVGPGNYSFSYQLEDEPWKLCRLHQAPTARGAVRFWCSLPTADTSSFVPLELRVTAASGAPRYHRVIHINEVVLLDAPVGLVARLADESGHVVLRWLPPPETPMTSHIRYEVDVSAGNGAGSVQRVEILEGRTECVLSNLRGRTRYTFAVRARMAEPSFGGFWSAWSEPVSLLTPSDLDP

[9] = target: T9, rHuman ErbB2/Fc Chimera, CF (R&D Systems Cat#1129-ER) (human, UniProt P04626 23-652); experiment: as above
T9 construct: Bought protein; also called HER2/neu; human epidermal growth factor 2 receptor; Fc part of the bought chimera not given

[10] = target: T1, rHuman HGF R/c-MET/Fc Chimera, CF (R&D …); experiment: ECL (MSD multi-spot), antigen spotted on plate; Fab 10 nM; blank 550
[11] = target: T2, rHuman IGF-1 sR (IGF-1 sR), CF (R&D …); experiment: as above
[12] = target: T3, Recombinant Human DLL4 (R&D Systems …); experiment: as above
[13] = target: T4, rHuman Notch-1/Fc Chimera, CF (R&D …); experiment: as above
[14] = target: T5, rHuman EGF R/Fc Chimera, CF (R&D …); experiment: as above
[15] = target: T6, rHuman CD44/Fc Chimera, CF (R&D Systems …); experiment: as above
[16] = target: T7, rHuman P-Cadherin/Fc Chimera, CF (R&D …); experiment: as above
[17] = target: T8, rHuman Erythropoietin R/Fc Chimera, CF …; experiment: as above
[18] = target: T9, rHuman ErbB2/Fc Chimera, CF (R&D …); experiment: as above
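Further: blank spot per well as comparator with Hit at signal to blank ratio of 4 or more.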

B1: Fab VH1-46_IGHD6-6*01_IGHJ1*01_S103P & L6_IGKJ1*01 (Fab, V domains shown)
VH: QVQLVQSGAEVKKPGASVKVSCKASGYTFTSYYMHWVRQAPGQGLEWMGIINPSGGSTSYAQKFQGRVTMTRDTSTSTVYMELSSLRSEDTAVYYCAREEYSPSSAEYFQHWGQGTLVTVSS
VL: not shown
notes: Expressed in E. coli as a Fab; CH1 with Flag and His tags comes from Plasmid A and the kappa CL from Plasmid C; also called IGHV1-46*01; IGHJ1*01 S103P with IGKV3-11*01
[1]
  ECL signal: 1360
[2]
  ECL signal: 1340
[3]
  ECL signal: 29800
[4]
  ECL signal: 1210
[5]
  ECL signal: 1910
[6]
  ECL signal: 1220
[7]
  ECL signal: 1380
[8]
  ECL signal: 1510
[9]
  ECL signal: 1280
[10]
  ECL signal: 859
[11]
  ECL signal: 814
[12]
  ECL signal: 55100
[13]
  ECL signal: 792
[14]
  ECL signal: 773
[15]
  ECL signal: 746
[16]
  ECL signal: 846
[17]
  ECL signal: 802
[18]
  ECL signal: 847
